Laboratory results as given in US20180222961A1 (IMMATICS BIOTECHNOLOGIES, published 2018).

B1: VTDLISPRK (peptide)
peptide: VTDLISPRK
B2: GTNTVILEY (peptide)
peptide: GTNTVILEY
B3: SMYYPLQLK (peptide)
peptide: SMYYPLQLK
B4: APSTPRITTF (peptide)
peptide: APSTPRITTF
B5: AVRKPIVLK (peptide)
peptide: AVRKPIVLK
B6: GTSPPSVEK (peptide)
peptide: GTSPPSVEK
B7: RTEEVLLTFK (peptide)
peptide: RTEEVLLTFK
B8: RLFSWLVNR (peptide)
peptide: RLFSWLVNR
B9: SAAPPSYFR (peptide)
peptide: SAAPPSYFR
B10: AAFVPLLLK (peptide)
peptide: AAFVPLLLK
B11: SVLTSSLVK (peptide)
peptide: SVLTSSLVK
B12: VLADSVTTK (peptide)
peptide: VLADSVTTK
B13: RSRLNPLVQR (peptide)
peptide: RSRLNPLVQR
B14: VSKTTGMEF (peptide)
peptide: VSKTTGMEF
B15: RMFADDLHNLNK (peptide)
peptide: RMFADDLHNLNK
B16: RMASPVNVK (peptide)
peptide: RMASPVNVK
B17: RVNAIPFTY (peptide)
peptide: RVNAIPFTY
B18: VTADHSHVF (peptide)
peptide: VTADHSHVF
B19: GTVNPTVGK (peptide)
peptide: GTVNPTVGK
B20: SPAPLKLSRTPA (peptide)
peptide: SPAPLKLSRTPA
B21: QIHDHVNPK (peptide)
peptide: QIHDHVNPK
B22: SSSSATISK (peptide)
peptide: SSSSATISK
B23: RISEYLLEK (peptide)
peptide: RISEYLLEK
B24: RRIHTGEKPYK (peptide)
peptide: RRIHTGEKPYK
B25: GMMKGGIRK (peptide)
peptide: GMMKGGIRK
B26: RQPERTILRPR (peptide)
peptide: RQPERTILRPR
B27: VLYGPAGLGK (peptide)
peptide: VLYGPAGLGK
B28: KTFTIKRFLAK (peptide)
peptide: KTFTIKRFLAK
B29: KTFPASTVF (peptide)
peptide: KTFPASTVF
B30: RLFTSPIMTK (peptide)
peptide: RLFTSPIMTK
B31: RAKELEATF (peptide)
peptide: RAKELEATF
B32: STTFPTLTK (peptide)
peptide: STTFPTLTK
B33: APLKLSRTPA (peptide)
peptide: APLKLSRTPA
B34: SVSSETTKIKR (peptide)
peptide: SVSSETTKIKR
B35: KTLELRVAY (peptide)
peptide: KTLELRVAY
B36: AVFNPRFYRTY (peptide)
peptide: AVFNPRFYRTY
B37: RVFTSSIKTK (peptide)
peptide: RVFTSSIKTK
B38: SVSGVKTTF (peptide)
peptide: SVSGVKTTF
B39: KSLIKSWKK (peptide)
peptide: KSLIKSWKK
B40: TTALKTTSR (peptide)
peptide: TTALKTTSR
B41: SLKERNPLK (peptide)
peptide: SLKERNPLK
B42: KPIESTLVA (peptide)
peptide: KPIESTLVA
B43: TVAPPQGVVK (peptide)
peptide: TVAPPQGVVK
B44: RLKGDAWVYK (peptide)
peptide: RLKGDAWVYK
B45: IVQEPTEEK (peptide)
peptide: IVQEPTEEK
B46: AIKVIPTVFK (peptide)
peptide: AIKVIPTVFK
B47: NLSSITHER (peptide)
peptide: NLSSITHER
B48: GTYAHTVNR (peptide)
peptide: GTYAHTVNR
B49: GAYAHTVNR (peptide)
peptide: GAYAHTVNR
B50: ISYSGQFLVK (peptide)
peptide: ISYSGQFLVK
B51: NPDLRRNVL (peptide)
peptide: NPDLRRNVL
B52: HTFGLFYQR (peptide)
peptide: HTFGLFYQR
B53: RLQEWKALK (peptide)
peptide: RLQEWKALK
B54: SPGAQRTFFQL (peptide)
peptide: SPGAQRTFFQL

Columns and labels:
HLA-A*03:01 = biological target: T1, HLA-A*03:01 (human); experiment: UV-exchange b2m ELISA; exchange-yield grade
T1 construct: also called peptide-receptive MHC molecules
Description: (§1) Candidate peptides for T cell based therapies according to the present invention were further tested for their MHC binding capacity (affinity). The individual peptide-MHC complexes were produced by UV-ligand exchange, where a UV-sensitive peptide is cleaved upon UV-irradiation, and exchanged with the peptide of interest as analyzed. Only peptide candidates that can effectively bind and stabilize the peptide-receptive MHC molecules prevent dissociation of the MHC complexes. To determine the yield of the exchange reaction, an ELISA was performed based on the detection of the light chain (β2m) of stabilized MHC complexes. The assay was performed as generally described in Rodenko et al. (Rodenko et al., 2006).
(§2) 96 well MAXISorp plates (NUNC) were coated over night with 2 ug/ml streptavidin in PBS at room temperature, washed 4× and blocked for 1 h at 37° C. in 2% BSA containing blocking buffer. Refolded HLA-A*02:01/MLA-001 monomers served as standards, covering the range of 15-500 ng/ml. Peptide-MHC monomers of the UV-exchange reaction were diluted 100-fold in blocking buffer. Samples were incubated for 1 h at 37° C., washed four times, incubated with 2 ug/ml HRP conjugated anti-β2m for 1 h at 37° C., washed again and detected with TMB solution that is stopped with […]. Absorption was measured at 450 nm. Candidate peptides that show a high exchange yield (preferably higher than 50%, most preferred higher than 75%) are generally preferred for a generation and production of antibodies or fragments thereof, and/or T cell receptors or fragments thereof, as they show sufficient avidity to the MHC molecules and prevent dissociation of the MHC complexes.

HLA-B*07:02 = biological target: T2, HLA-B*07:02 (human); experiment: UV-exchange b2m ELISA; exchange-yield grade
T2 construct: also called peptide-receptive MHC molecules
Description: as §1, §2

Binder | peptide exchange yield (HLA-A*03:01) [%] | peptide exchange yield (HLA-B*07:02) [%]
B1 | 20 to 50 | 
B2 | 50 to 75 | 
B3 | 50 to 75 | 
B4 |  | 50 to 75
B5 | 50 to 75 | 
B6 | 20 to 50 | 
B7 | 20 to 50 | 
B8 | 50 to 75 | 
B9 | 20 to 50 | 
B10 | 20 to 50 | 
B11 | 20 to 50 | 
B12 | 20 to 50 | 
B13 | 20 to 50 | 
B14 | 10 to 20 | 
B15 | 50 to 75 | 
B16 | > 75 | 
B17 | 50 to 75 | 
B18 | 10 to 20 | 
B19 | 20 to 50 | 
B20 |  | 20 to 50
B21 | 20 to 50 | 
B22 | 20 to 50 | 
B23 | 20 to 50 | 
B24 | 20 to 50 | 
B25 | 50 to 75 | 
B26 | 20 to 50 | 
B27 | 50 to 75 | 

Binder | peptide exchange yield (HLA-A*03:01) [%] | peptide exchange yield (HLA-B*07:02) [%]
B28 | 20 to 50 | 
B29 | 10 to 20 | 
B30 | 50 to 75 | 
B31 | 10 to 20 | 
B32 | 20 to 50 | 
B33 |  | 50 to 75
B34 | 20 to 50 | 
B35 | 20 to 50 | 
B36 | 20 to 50 | 
B37 | 20 to 50 | 
B38 | 20 to 50 | 
B39 | 20 to 50 | 
B40 | 10 to 20 | 
B41 | 20 to 50 | 
B42 |  | 50 to 75
B43 | 20 to 50 | 
B44 | 50 to 75 | 
B45 | 20 to 50 | 
B46 | 20 to 50 | 
B47 | 20 to 50 | 
B48 | 50 to 75 | 
B49 | 50 to 75 | 
B50 | 50 to 75 | 
B51 |  | 50 to 75
B52 | 20 to 50 | 
B53 | 50 to 75 | 
B54 |  | 50 to 75
